Experimental data taken from patent US20230176070A1 (published 2023).

B1: P15 (VHH)
VHH: QVQLVESGGGLVQAGGSLRLSCVASGRPFSSLDMGWFRQRPGKERDVVATINWTGDSTYYLDSVKGRFTISRDNAKNTVFLQMNSLKPEDTAVYYCAARGGGSSVDSEYDVGEFEYDYWGQGTQVTVSS
B2: H16 (VHH)
VHH: QVQLVESGGGLVQTGGSLTLSCAASGRTFSTKSMGWFRQAPGKEREFVADINWNGGITHYADSVEGRFTISRDNANDMVYLQMNSLKPEDTAVYYCAGGRYSTLFSKSEADYDYWGQGTQVTVSS
B3: H25 (VHH)
VHH: DVQLVESGGGLVQAGGSLRLSCAASGRTISDYGMAWFRQAPGKEREFVGVITSNSVTTYYADSVKGRFTISRDNTKNTVYLQMISLKPEDTAIYYCAARIPVGFYYNARNYDFWGQGTQVTVSS
B4: H4 (VHH)
VHH: HVQLVESGGGLVQTGGSLRLACAASGRAFSTYAMGWFRQAPGKEREFVASINRSGSSTYYADSVKGRFTISRDNGKDTVYLQMNRLIPEDTAVYYCAADSEGVGFRNMLEYDYWGQGTQVTVSS
B5: H28 (VHH)
VHH: DVQLVESGGGLAQAGGSLRLSCAASGRTFSNECMGWFRQAPGKEREFVATIRSTGHISYATSVQGRFTVSRDIAKNTVYLEMNNLKPEDTAVYSCGAGVSDYGCYRTSGYNYWGQGTQVTVSS
notes: also called N28
B6: H30 (VHH)
VHH: HVQLVESGGGLAQAGGSLRLSCAASGGTFSNSCMGWFRQAPGMEREFVAIIRSTGHTTYADSVEGRFTVSRDIAKNTVYLEMNSLKPEDTAVYSCVAGVSDYGCYRTSGIKYWGQGTQVTVSS
B7: P4 (VHH)
VHH: HVQLVESGGGLVQAGGSLRLSCAAAGRTSSDYAMGWFRQAPGKEREFVSAINWSGISTYYADSVKGRFTISRDNAKNTVHLQMNSLKPEDTAVYYCAAEKLESLRNWHDPLMYDYWGQGTQVTVSE
B8: H3 (VHH)
VHH: QVQLVESGGGLVQAGGSLRLSCVASGRTFEPFVMGWFRQAPGKEREFVATISWSGGSLSYADSVKGRFTVSRDNAKNTVYLQMNSLKPEDTAVYYCAAAPGVGNYRYTFQYDYWGQGTQVTVSE
B9: H21 (VHH)
VHH: QVQLVESGGGLVQAGGSLRLSCAASGYTSGNDAMGWFRQAPGKEREFVGAIRWSGVSTYYADSVKGRFTISRDGAKNTLYLQMNSLKPEDTAVYYCAAKFTGSAWYGVQKLESTYWDYWGQGTQVTVSS
B10: H2 (VHH)
VHH: QVQLVESGGGLVQAGGSLRLSCTASGRTFTPYTIGWFRQAPGKEREFVASILWSGINTDYADSVKGRFAISRDNAKNAAYLQMSNLKPEDTAVYYCATGGGLGYYRSVSQYDYWGQGTQVTVSE
B11: H11 (VHH)
VHH: QVQLVESGGGLVQVGGSLRLSCAASGRTFSNYVMGWFRQAPGKEREFVAYIHWSGSSTSYADSVKGRFTISRDNTKNTMYLQMNSLKPEDTAVYYCTADQYASTLLRAAGEYWGQGTQVTVSS
B12: H18 (VHH)
VHH: EVQLVESGGGLVQAGGSLRLSCTASGPKDTPYTMGWFRQVPGKEREFVASVLWSGINTDYADSVKGRFAISRNNAKNTMYLQMNSLKPEDTAVYYCAAGYGLGFYRSISQYDYWGHGTQVTVSS
B13: H20 (VHH)
VHH: EVQLVESGGGLVQAGGSLRLSCTASGPKDTPYTMGWFRQVPGKEREFVASVLWSGINTDYADSVKGRFAISRNNAKNTMYLQMNSLKPEDTAVYYCAAGYGLGFYRTVSQYDYWGHGTQVTVSS
B14: H7 (VHH)
VHH: DVQLVESGGGSVQAGGSLRLSCAASGGTFSSYAMGWYRQAPGKEREFVSGISWSGSSIDYVDSVKGRFTISRDNAKNTVYLQMNSLKPEDTAVYYCGAADPMGLGYGLGPRPVDRLLSAECDYWGQGTQVTVSS
B15: P5 (VHH)
VHH: DVQLVESGGGLVQAGDSLRLSCAASGITFRWYTMAWFRQAPGKERDFVATINWSGSDTNYADSVKGRFTISRDNAKNTVTLQMNSLQPEDTAVYYCAGVPGTSLSGETDPRDYDYWGQGTQVTVSE
B16: P1 (VHH)
VHH: DVQLVESGGGLVQPGGSLRLSCAASGFTLDDYAIGWFRQAPGKEREGVSCISSHGSTYYADSVKGRFTISRDNVKNTLYLQMNSLKPEDTALYYCAASYYSDYEVAVCRSDALDAWGQGTQVTVSE
B17: H35 (VHH)
VHH: EVQLVESGGGLVQAGGSLRVSCAVSGISIYHSGWYRQAPGKERELVAGISRGGSTNYADSVKGRFTISRDSGENTVYLQMNSLKPEDTAVYYCKIDWDYRGVSQTAWGQGTQVTVSS
B18: P2 (VHH)
VHH: DVQLVESGGGLVQAGGSLRLSCAASGHTFSSYTMGWFHQAPGKEREFVAEISGTGGNTGYADSVKGRFTISRDNAKNTVYLQMNSLKPEDTAVYYCAAVIGSPTDSSDYRSSLDYDYWGQGTQVTVSE
B19: P6 (VHH)
VHH: HVQLVESGGGLVQAGGSLRLSCAASGRTFSRYTMGWFHQAPGKEREFVAEISGTGGNTGYADSVKGRFTMSRDNAKNTVYLQMNSLKPEDTGVYYCAAVIGSPTDSSDYRSSLDYDYWGQGTQVTVSE
B20: P3 (VHH)
VHH: DVQLVESGGGLVQAGGSLRLSCAASGRTFSSYTMGWFHQAPGKEREFVAEIGGTGGNTGYADSVKGRFTISRDNAKNTVYLQMNSLKPEDTAVYYCAAVIGSPTDSSDYRSSLDYDYWGQGTQVTVSE

Legend:
MBP-PDZ fusion protein = biological target: T1, MBP-PDZ fusion protein (mammalian (so in the source), UniProt P57105 6-100, limits assumed); experiment: beads-binding assay, MBP-PDZ-coupled resin
T1 construct: domain: PDZ domain; also called MBP fusion PDZ
T1 sequence (looked up): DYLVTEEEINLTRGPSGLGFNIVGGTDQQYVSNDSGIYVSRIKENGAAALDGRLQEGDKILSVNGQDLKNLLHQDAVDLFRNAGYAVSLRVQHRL
Procedure: After Nb induction and cell lysis, the cell lysates were run on SDS-PAGE to estimate Nb expression levels. Recombinant Nbs in the cell lysis were diluted in 1x DPBS (pH 7.4) to a final concentration of ˜5 μM (for GST Nbs) and ˜50 nM (for PDZ Nbs). To test the specific interactions of Nbs with antigens, different antigens were coupled to the CNBr resin. Inactivated or MBP-conjugated CNBr resin was used for control. Antigen coupled resins or control resins were incubated with Nb lysates at 4° C. for 30 mins. The resins were then washed three times with a washing buffer (1x DPBS with 150 mM NaCl and 0.05% Tween 20) to remove nonspecific bindings. Specific antigen bound Nbs were then eluted from the resins by the hot LDS buffer containing 20 mM DTT and ran on SDS-PAGE. The intensities of Nbs on the gel were compared between antigen specific signals and control signals to derive the false positive binding.

human serum albumin [1] = biological target: T2, human serum albumin (human, UniProt P02768 25-609); experiment: indirect ELISA, HSA coated
T2 construct: In the mutant screen wild type HSA came from medium of transfected HeLa cells; also called HSA; wild type HSA
Procedure: Indirect ELISA was carried out to evaluate the camelid immune response of an antigen and to quantify the relative affinities of antigen-specific Nbs. An antigen was coated onto a 96-well ELISA plate (R&D system) at an amount of approximately 1-10 ng per well in a coating buffer (15 mM sodium carbonate, 35 mM sodium bicarbonate, pH 9.6) overnight at 4° C. The well surface was then blocked with a blocking buffer (DPBS, 0.05% Tween 20, 5% milk) at room temperature for 2 hours. To test an immune response, the immunized serum was serially 5-fold diluted in the blocking buffer. The diluted sera were incubated with the antigen coated wells at room temperature for 2 hours. HRP-conjugated secondary antibodies against llama Fc (Bethyl) were diluted 1:10,000 in the blocking buffer and incubated with each well for 1 hour at room temperature. […] Nbs of both specific binders for test and scramble negative controls were serially 10-fold diluted from 10 μM to 1 μM in the blocking buffer. HRP-conjugated secondary antibodies against His-tag (Genscript) or T7-tag (Thermo) were diluted 1:5,000 or 1:10,000 in the blocking buffer and incubated for 1 hour at room temperature. Three washes with 1x PBST (DPBS, 0.05% Tween 20) were carried out to remove nonspecific absorbance between incubations. After the final wash, the samples were further incubated under dark with freshly prepared w3,3′,5,5′-Tetramethylbenzidine (TMB) substrate for 10 mins at room temperature to develop the signals. After the STOP solution (R&D system), the plates were read at multiple wavelengths (450 nm and 550 nm) on a plate reader (Multiskan GO, Thermo Fisher). A false positive Nb binder was defined if any of the following two criteria was met: i) the ELISA signal can only be detected at a concentration of 10 μM and was under detected at 1 μM concentration. ii) At 1 μM concentration, a pronounced signal decrease (by more than 10-fold) was detected compared to the signal at 10 μM, while there were no signals can be detected at lower concentrations. The raw data was processed by Prism 7 (GraphPad) to fit into a 4PL curve and to calculate logIC50.

human serum albumin [2] = biological target: T2, human serum albumin; experiment: SPR, HSA immobilised;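 further: nanobody analytes injected as dilution series across three log units over CM5 chip with amine-coupled antigen, kinetics fitted by 1:1 Langmuir model, optionally with mass transfer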
Procedure: Nb affinity measurement by SPR. Surface plasmon resonance (SPR, Biacore 3000 system, GE Healthcare) was used to measure Nb affinities. Antigen proteins immobilized on the activated CM5 sensor-chip by the following steps. Protein analytes were diluted to 10-30 μg/ml in 10 mM sodium acetate, pH 4.5, and were injected into the SPR system at 5 μl/min for 420 s. The surface of the sensor was then blocked by 1 M ethanolamine-HCl (pH 8.5). For each Nb analyte, a series of dilution (spanning three orders of magnitude) was injected in HBS-EP+ running buffer (GE-Healthcare) containing 2 mM DTT, at a flow rate of 20-30 μl/min for 120-180 s, followed by a dissociation time of 5-20 mins based on dissociation rate. Between each injection, the sensor chip surface was regenerated with the low pH buffer containing 10 mM glycine-HCl (pH 1.5-2.5), or high pH buffer of 20-40 mM NaOH (pH 12-13). The regeneration was performed with a flow rate of 40-50 μl/min for 30 s. The measurements were duplicated and only highly reproducible data was used for analysis. Binding sensorgrams for each Nb were processed and analyzed using BIAevaluation by fitting with 1:1 Langmuir model or 1:1 Langmuir model with mass transfer.

T2 sequence (P02768 25-609 limits assumed): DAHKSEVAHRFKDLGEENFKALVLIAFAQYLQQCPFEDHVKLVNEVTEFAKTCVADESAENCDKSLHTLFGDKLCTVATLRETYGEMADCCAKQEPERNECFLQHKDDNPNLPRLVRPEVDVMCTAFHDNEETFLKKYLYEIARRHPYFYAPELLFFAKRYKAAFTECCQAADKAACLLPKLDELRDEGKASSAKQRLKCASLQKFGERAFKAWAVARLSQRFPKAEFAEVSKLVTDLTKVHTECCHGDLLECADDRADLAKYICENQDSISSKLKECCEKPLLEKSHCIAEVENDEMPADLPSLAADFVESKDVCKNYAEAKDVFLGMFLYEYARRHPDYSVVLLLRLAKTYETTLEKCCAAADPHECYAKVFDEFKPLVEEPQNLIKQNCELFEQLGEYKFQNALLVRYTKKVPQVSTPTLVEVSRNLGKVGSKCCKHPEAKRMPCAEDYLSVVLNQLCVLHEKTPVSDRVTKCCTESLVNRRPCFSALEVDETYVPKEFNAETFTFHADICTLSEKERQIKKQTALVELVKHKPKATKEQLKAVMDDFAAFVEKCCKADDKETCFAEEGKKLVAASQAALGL

Row | Binder | binding result (MBP-PDZ fusion protein) | ELISA affinity (LogIC50 (oD450nm)) (human serum albumin [1]) | Kd (human serum albumin [2]) [pM] | koff (human serum albumin [2]) [s⁻¹] | kon (human serum albumin [2]) [M⁻¹ s⁻¹] | binding result (human serum albumin [1])
1 | B1 | binds | – | – | – | – | –
2 | B2 | – | 5.99 | 86.2 | 0.000116 | 1.34e+06 | –
3 | B3 | – | 5.34 | 858 | 0.000802 | 936000 | –
4 | B4 | – | 5.4 | 266 | 0.000264 | 992000 | –
5 | B5 | – | 5.12 | 1660 | 0.00868 | 5.24e+06 | –
6 | B6 | – | 5.89 | 164 | 0.000168 | 1.03e+06 | –
7 | B7 | binds | – | – | – | – | –
8 | B8 | – | 7 | 454 | 0.000504 | 1.11e+06 | –
9 | B9 | – | 5.63 | 266 | 0.000182 | 683000 | –
10 | B10 | – | 5.88 | 170 | 3.99e-05 | 234000 | –
11 | B11 | – | 6.27 | 61 | 1.55e-05 | 255000 | –
12 | B12 | – | 5.65 | 502 | 8.71e-05 | 171000 | –
13 | B13 | – | 5.76 | 247 | 3.8e-05 | 154000 | –
14 | B14 | – | 5.62 | 1090 | 9.79e-05 | 93500 | –
15 | B15 | binds | – | – | – | – | –
16 | B16 | binds | – | – | – | – | –
17 | B17 | – | – | – | – | – | no binding (tested: Nb titrated from 10 µM)
18 | B18 | binds | – | – | – | – | –
19 | B19 | binds | – | – | – | – | –
20 | B20 | binds | – | – | – | – | –
